According to US20090232783:

Target: Ferritin-H (expression plasmid pcEXV-1) (Homo sapiens) (UniProt P02794)
Experiment: cell_activity
Settings: CV-1 cells, EKLF-stimulated CAT reporter

Ferritin-H (expression plasmid pcEXV-1) (Homo sapiens), sequence (P02794 2-183): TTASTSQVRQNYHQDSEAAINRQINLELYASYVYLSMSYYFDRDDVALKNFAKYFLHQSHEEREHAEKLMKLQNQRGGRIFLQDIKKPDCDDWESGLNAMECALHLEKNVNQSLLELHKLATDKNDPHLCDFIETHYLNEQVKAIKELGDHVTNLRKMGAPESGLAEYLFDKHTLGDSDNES

## beta-globin -610/+20 promoter in CAT reporter
  activity: 62 % repression
